# Read-outs that look alike come from different tables or passages of the source.
# T1: MAZ (UniProt P56270)
# T1 sequence: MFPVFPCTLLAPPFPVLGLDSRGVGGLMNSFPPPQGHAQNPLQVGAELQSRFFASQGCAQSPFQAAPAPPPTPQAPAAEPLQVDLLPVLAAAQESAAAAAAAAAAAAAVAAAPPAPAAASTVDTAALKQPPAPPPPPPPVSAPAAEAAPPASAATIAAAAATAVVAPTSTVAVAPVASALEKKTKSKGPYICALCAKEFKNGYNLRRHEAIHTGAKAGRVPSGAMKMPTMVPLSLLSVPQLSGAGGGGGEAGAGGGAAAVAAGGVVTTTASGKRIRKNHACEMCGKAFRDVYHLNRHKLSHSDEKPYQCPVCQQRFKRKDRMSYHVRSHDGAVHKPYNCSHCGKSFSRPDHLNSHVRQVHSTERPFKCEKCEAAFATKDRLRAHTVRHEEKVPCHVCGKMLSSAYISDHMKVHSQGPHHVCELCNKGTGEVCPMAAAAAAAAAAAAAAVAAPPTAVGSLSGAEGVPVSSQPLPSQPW
# Legend:
# Experiment in all cases: EMSA
# MAZ = biological target: T1, MAZ
# OGG1 (hOGG1) [1] = biological target: T2, OGG1 (hOGG1) (UniProt O15527 1-345)
# T2 sequence (O15527 whole entry): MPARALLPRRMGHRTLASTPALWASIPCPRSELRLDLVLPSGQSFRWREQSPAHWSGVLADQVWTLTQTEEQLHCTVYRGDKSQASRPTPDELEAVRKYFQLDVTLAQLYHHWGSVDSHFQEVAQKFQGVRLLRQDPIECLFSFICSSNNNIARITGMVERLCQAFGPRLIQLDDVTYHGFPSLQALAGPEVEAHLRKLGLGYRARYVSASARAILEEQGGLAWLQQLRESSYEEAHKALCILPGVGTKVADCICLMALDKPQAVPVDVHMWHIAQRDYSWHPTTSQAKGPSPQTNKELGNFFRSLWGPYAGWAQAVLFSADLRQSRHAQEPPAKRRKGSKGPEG
# OGG1 (hOGG1) [2] = biological target: T2, OGG1 (hOGG1); remark: listed apart in the source
molecule,measurement,setting,value
AGGGCGGTGTGGGAAGAGGGAAGAGGGGGAGG [95 G4],binding signal (fold vs 32R G4),MAZ; 8-oxoG at G16,5
AGGGCGGTGTGGGAAGAGGGAAGAGGGGGAGG [96 G4],binding signal (fold vs 32R G4),MAZ; 8-oxoG in 11-nt loop (Table 1: one; text: two; positions only in figure),5
AGGGCGGTGTGGGAAGAGGGAAGAGGGGGAGG [32R G4],binding signal,MAZ,1 reference
AGGGCGGTGTGGGAAGAGGGAAGAGGGGGAGG [97 G4],binding signal (fold vs 32R G4),MAZ; 8-oxoG at G16 and G23,5
AGGGCGGTGTGGGAAGAGGGAAGAGGGGGAGG (structured_DNA) [32R G4],binding result,OGG1 (hOGG1) [1],binds
"AGGGCGGTGTGGGAAGAGGGAAGAGGGGGAGG (structured_DNA, 8-oxoG at G6) [92 G4]",binding result,OGG1 (hOGG1) [2],binds
"AGGGCGGTGTGGGAAGAGGGAAGAGGGGGAGG (structured_DNA, one 8-oxoG in G-run III (exact position only in figure)) [93 G4]",binding result,OGG1 (hOGG1) [2],binds
"AGGGCGGTGTGGGAAGAGGGAAGAGGGGGAGG (structured_DNA, two 8-oxoG in G-tetrad runs (exact positions only in figure)) [94 G4]",binding result,OGG1 (hOGG1) [2],binds

# Source: paper PMC5778462
